Consider six molecules from patent US20150018528A1 (Novo Nordisk, published 2015).

Assay [1] has as its target T1, Type II PGLYRP4 on HEK293-6E cells (human, UniProt Q96LB8 18-373).
T1 construct: also called hPGLYRP4; PGRP-1b
T1 sequence: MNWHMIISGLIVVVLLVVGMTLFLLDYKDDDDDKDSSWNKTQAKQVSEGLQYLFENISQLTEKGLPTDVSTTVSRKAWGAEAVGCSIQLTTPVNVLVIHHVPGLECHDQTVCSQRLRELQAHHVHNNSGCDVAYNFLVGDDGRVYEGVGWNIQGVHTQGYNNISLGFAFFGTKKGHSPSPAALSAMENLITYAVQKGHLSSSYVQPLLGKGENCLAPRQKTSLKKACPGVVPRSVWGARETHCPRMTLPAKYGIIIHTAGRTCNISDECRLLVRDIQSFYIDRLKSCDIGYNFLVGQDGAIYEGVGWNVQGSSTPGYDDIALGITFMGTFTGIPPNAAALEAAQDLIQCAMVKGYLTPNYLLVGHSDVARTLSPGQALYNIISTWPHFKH
The assay can be described thus: flow cytometry on transfected HEK293-6E cells. The method, then: (§1) 51.2090KZ, BD Biosciences, San Jose Calif., USA) for intracellular staining or 2% FBS/PBS for surface staining: cell pellets were resuspended in a 96-well round bottom plate (to begin with: 160,000 cells/well) with 200 μl cytofix/perm buffer for 15 minutes at 22 C., washed twice with 200 μl 1× PermWash Buffer (diluted 10× in DiH20), stained with 50 μl probe diluted to 5 µg/ml in 1× PermWash buffer, incubated for 1 hour at 4 C., cells were then washed with 200 μl 1× PermWash Buffer, a secondary probe was added in 50 μl 1× PermWash buffer, cells were incubated at 4 C. for 30 minutes, washed twice with 200 μl 1× PermWash Buffer, pellets were resuspended in 50 μl 1:1 PBS diluted CytoFix (BD:554655, San Jose, Calif.), incubated for 5 minutes at 22 C., 150 μl PBS/2% FBS was added, centrifuged for 5 minutes at 300 g, washed 1× with 200 μl PBS/2% FBS and resuspended in 100 μl PBS/2% FBS. Binding was analysed using FACS on LSRII (BD, San Jose Calif., USA).

In assay [2] the target is T2, Type II PGLYRP2 on HEK293-6E cells (human, UniProt Q96PD5 22-576).
T2 construct: also called hPGLYRP2; PGRP-L
T2 sequence: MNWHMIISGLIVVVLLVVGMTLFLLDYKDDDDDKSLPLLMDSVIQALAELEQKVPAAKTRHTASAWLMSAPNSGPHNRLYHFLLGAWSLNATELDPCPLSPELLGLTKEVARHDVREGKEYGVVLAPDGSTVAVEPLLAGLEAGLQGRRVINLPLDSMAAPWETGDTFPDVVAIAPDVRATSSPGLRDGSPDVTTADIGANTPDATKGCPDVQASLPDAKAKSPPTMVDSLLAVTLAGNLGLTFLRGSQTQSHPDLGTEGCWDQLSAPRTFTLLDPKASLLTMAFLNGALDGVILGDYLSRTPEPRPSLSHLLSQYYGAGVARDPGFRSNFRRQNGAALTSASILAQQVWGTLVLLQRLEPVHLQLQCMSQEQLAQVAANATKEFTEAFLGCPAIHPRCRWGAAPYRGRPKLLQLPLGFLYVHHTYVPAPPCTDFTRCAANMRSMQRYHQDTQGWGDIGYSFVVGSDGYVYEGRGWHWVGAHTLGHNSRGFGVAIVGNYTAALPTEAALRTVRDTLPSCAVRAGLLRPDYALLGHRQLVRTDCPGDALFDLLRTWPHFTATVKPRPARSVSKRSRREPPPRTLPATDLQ
The assay can be described thus: flow cytometry on transfected HEK293-6E cells. How it is done: as §1

Assay [3] addresses T3, Type II muPGLYRP1 on HEK293-6E cells (mouse, UniProt O88593 19-182).
T3 construct: whole, on cells; also called mouse PGLYRP1; not shown: Type II membrane anchor; construct is not described in the text
T3 sequence (looked up): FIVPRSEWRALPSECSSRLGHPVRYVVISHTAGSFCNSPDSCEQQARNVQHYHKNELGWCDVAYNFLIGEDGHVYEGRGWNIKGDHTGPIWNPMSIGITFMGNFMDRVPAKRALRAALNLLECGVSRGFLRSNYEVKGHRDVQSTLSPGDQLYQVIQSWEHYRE
The assay can be described thus: flow cytometry on transfected HEK293-6E cells. How it is done: as §1

In assay [4] the target is T4, recombinant human PGLYRP1 generated in-house (SEQ ID NO: 1) (human, UniProt O75594 22-196).
T4 sequence: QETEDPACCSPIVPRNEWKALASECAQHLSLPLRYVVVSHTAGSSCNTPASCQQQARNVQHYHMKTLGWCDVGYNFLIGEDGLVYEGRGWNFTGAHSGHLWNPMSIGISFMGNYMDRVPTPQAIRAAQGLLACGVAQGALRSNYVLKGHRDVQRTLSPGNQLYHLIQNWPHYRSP
The assay can be described thus: direct ELISA on PGLYRP1 protein (primary screening of hybridoma supernatants).

Assay [5] addresses T5, endogenous human PGLYRP1 (neutrophils; RA synovial fluid) (human, UniProt O75594 22-196).
T5 construct: also called PGRP-S; neutrophil-derived PGLYRP1
T5 sequence (looked up): T4 sequence
As to the kind of experiment: crosslinking, immunoprecipitation and LC/MS/MS from human neutrophils; CD83-Fc as control bait.

B1: huTREML2.Fc dimer (C0247) (Fc fusion)
chain: GPSADSVYTKVRLLEGETLSVQCSYKGYKNRVEGKVWCKIRKKKCEPGFARVWVKGPRYLLQDDAQAKVVNITMVALKLQDSGRYWCMRNTSGILYPLMGFQLDVSPAPQTERNIPFTHLDNILKSGTVTTGQAPTSGPDAPFTTGVMVFTPGLITLPRLLASTRPASKTGYSFTATSTTSQGPRRTMGSQTVTASPSNARDSSAGPESISTKSGDLSTRSPTTGLCLTSRSLLNRLPSMPSIRHQDVYSGTEPKSSDKTHTCPPCPAPEAEGAPSVFLFPPKPKDTLMISRTPEVTCVVVDVSHEDPEVKFNWYVDGVEVHNAKTKPREEQYNSTYRVVSVLTVLHQDWLNGKEYKCKVSNKALPSSIEKTISKAKGQPREPQVYTLPPSREEMTKNQVSLTCLVKGFYPSDIAVEWESNGQPENNYKTTPPVLDSDGSFFLYSKLTVDKSRWQQGNVFSCSVMHEALHNHYTQKSLSLSPGK
notes: Entry may hold the hCD33 leader; code tied by the name of the construct only; also called huTremL2.Fc (C0247); hTREML2-Fc6mut dimer
Regarding B1, the “ratio of MFI of probe staining over negative control staining” value (from here on “ratio of MFI of probe staining”) in assay [1] and in assay [2] was less than 1 ratio throughout.

B2: huTREML1.Fc dimer (C0246) (Fc fusion)
chain: QGIVGSLPEVLQAPVGSSILVQCHYRLQDVKAQKVWCRFLPEGCQPLVSSAVDRRAPAGRRTFLTDLGGGLLQVEMVTLQEEDAGEYGCMVDGARGPQILHRVSLNILPPEEEEETHKIGSLAENAFSDPAGSANPLEPSQDEKSIPGTEPKSSDKTHTCPPCPAPEAEGAPSVFLFPPKPKDTLMISRTPEVTCVVVDVSHEDPEVKFNWYVDGVEVHNAKTKPREEQYNSTYRVVSVLTVLHQDWLNGKEYKCKVSNKALPSSIEKTISKAKGQPREPQVYTLPPSREEMTKNQVSLTCLVKGFYPSDIAVEWESNGQPENNYKTTPPVLDSDGSFFLYSKLTVDKSRWQQGNVFSCSVMHEALHNHYTQKSLSLSPGK
notes: Entry may hold the hCD33 leader; code tied by the name of the construct only; also called huTremL1.Fc (C0246); hTREML1-Fc6mut dimer
B2: the “ratio of MFI of probe staining” value in assay [3], in assay [1] and in assay [2] was less than 1 ratio each time.

B3: huTREM2.Fc dimer (C0248) (Fc fusion)
chain: HNTTVFQGVAGQSLQVSCPYDSMKHWGRRKAWCRQLGEKGPCQRVVSTHNLWLLSFLRRWNGSTAITDDTLGGTLTITLRNLQPHDAGLYQCQSLHGSEADTLRKVLVEVLADPLDHRDAGDLWFPGESESFEDAHVEHSISRSLLEGEIPFPPTSGTEPKSSDKTHTCPPCPAPEAEGAPSVFLFPPKPKDTLMISRTPEVTCVVVDVSHEDPEVKFNWYVDGVEVHNAKTKPREEQYNSTYRVVSVLTVLHQDWLNGKEYKCKVSNKALPSSIEKTISKAKGQPREPQVYTLPPSREEMTKNQVSLTCLVKGFYPSDIAVEWESNGQPENNYKTTPPVLDSDGSFFLYSKLTVDKSRWQQGNVFSCSVMHEALHNHYTQKSLSLSPGK
notes: Entry may hold the hCD33 leader; code tied by the name of the construct only; also called huTrem2.Fc (C0248); hTREM2-Fc6mut dimer
Consider B3, for which the “ratio of MFI of probe staining” value in assay [1] and in assay [2] was less than 1 ratio each time.

B4: M-hPGRPS-2F5 (antibody, V domains shown)
VH: EVQLVESGGGLVKPGGSLKLSCAASGFSFSDYYMYWVRQTPEKRLEWVAAISDDSTYTYYPDSVKGRFTISRDNAKNNLYLQMSSLKSEDTAMYYCARGGYGNLYAMDYWGQGTSVTVSS
VL: QIVLTQSPAIMSASLGERVTMTCTASSSVSSSYLHWYQQKPGSSPKLWIYSTSNLASGVPARFSGSGSGTSYSLTISSMEAEDAATYYCHQYHRSPFTFGSGTKLEIKR
notes: Tested as hybridoma supernatant
Regarding B4, the binding result in assay [4] is “binds”.

B5: M-hPGRPS-2F7 (antibody, V domains shown)
VH: EVQLQQSGPEVVKPGTSVKMSCKASGYTFTNYVMHWVRQKPGQGLEWVGWINPFNDGTNYNENFKNKATLTSDKSSSTAYMELSSLTSEDSAVYYCARSGFITTLIEDYWGQGTTLTVSS
VL: NIVMTQSPKYMSMSVGERVTLTCKASESVGSFVSWYQQKADQSPNLLIYGASNRYTGVPDRFTGSGSARDFTLTISSVQAKDLAEYYCGQYYTHPTFGAGTKLELKR
notes: as for B4
Regarding B5, the binding result in assay [4] is listed as “binds”.

B6: hCD83-G4Sx3-hCD83/Fc6mut (CD83-Fc, hCD83 tetramer) (Fc fusion)
chain: TPEVKVACSEDVDLPCTAPWDPQVPYTVSWVKLLEGGEERMETPQEDHLRGQHYHQKGQNGSFDAPNERPYSLKIRNTTSCNSGTYRCTLQDPDGQRNLSGKVILRVTGCPAQRKEETFKKYRAEGTGGGGSGGGGSGGGGSTPEVKVACSEDVDLPCTAPWDPQVPYTVSWVKLLEGGEERMETPQEDHLRGQHYHQKGQNGSFDAPNERPYSLKIRNTTSCNSGTYRCTLQDPDGQRNLSGKVILRVTGCPAQRKEETFKKYRAEGALAGTEPKSSDKTHTCPPCPAPEAEGAPSVFLFPPKPKDTLMISRTPEVTCVVVDVSHEDPEVKFNWYVDGVEVHNAKTKPREEQYNSTYRVVSVLTVLHQDWLNGKEYKCKVSNKALPSSIEKTISKAKGQPREPQVYTLPPSREEMTKNQVSLTCLVKGFYPSDIAVEWESNGQPENNYKTTPPVLDSDGSFFLYSKLTVDKSRWQQGNVFSCSVMHEALHNHYTQKSLSLSPGK
notes: also called control construct (CD83); control protein
For the molecule B6, the binding result in assay [5] is reported as “no binding (tested: 100 µg/ml)”.
